Experimental data reported in PMC3542269.

Target: clathrin (human (endogenous in PC-3)) (UniProt Q00610)
Experiment: co-IP; PC-3 lysate (50 mM HEPES pH 5.5, 1 mM EDTA, 150 mM NaCl, 1% Triton X-100); anti-clathrin (1 µg) or anti β-actin (5 µg) antibody overnight at 4°C, Protein A Sepharose; profilin 1 detected by Western blot; cells treated 24 h with 10 µM AMS-36 (cathepsin X inhibitor) or DMSO

Chain of profilin 1 (P07737 whole entry): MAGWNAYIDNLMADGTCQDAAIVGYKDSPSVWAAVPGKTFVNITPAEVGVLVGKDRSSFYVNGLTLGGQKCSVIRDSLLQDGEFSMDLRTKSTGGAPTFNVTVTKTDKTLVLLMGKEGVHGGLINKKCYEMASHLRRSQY
Chain of UniProt Q00610 (Q00610 whole entry): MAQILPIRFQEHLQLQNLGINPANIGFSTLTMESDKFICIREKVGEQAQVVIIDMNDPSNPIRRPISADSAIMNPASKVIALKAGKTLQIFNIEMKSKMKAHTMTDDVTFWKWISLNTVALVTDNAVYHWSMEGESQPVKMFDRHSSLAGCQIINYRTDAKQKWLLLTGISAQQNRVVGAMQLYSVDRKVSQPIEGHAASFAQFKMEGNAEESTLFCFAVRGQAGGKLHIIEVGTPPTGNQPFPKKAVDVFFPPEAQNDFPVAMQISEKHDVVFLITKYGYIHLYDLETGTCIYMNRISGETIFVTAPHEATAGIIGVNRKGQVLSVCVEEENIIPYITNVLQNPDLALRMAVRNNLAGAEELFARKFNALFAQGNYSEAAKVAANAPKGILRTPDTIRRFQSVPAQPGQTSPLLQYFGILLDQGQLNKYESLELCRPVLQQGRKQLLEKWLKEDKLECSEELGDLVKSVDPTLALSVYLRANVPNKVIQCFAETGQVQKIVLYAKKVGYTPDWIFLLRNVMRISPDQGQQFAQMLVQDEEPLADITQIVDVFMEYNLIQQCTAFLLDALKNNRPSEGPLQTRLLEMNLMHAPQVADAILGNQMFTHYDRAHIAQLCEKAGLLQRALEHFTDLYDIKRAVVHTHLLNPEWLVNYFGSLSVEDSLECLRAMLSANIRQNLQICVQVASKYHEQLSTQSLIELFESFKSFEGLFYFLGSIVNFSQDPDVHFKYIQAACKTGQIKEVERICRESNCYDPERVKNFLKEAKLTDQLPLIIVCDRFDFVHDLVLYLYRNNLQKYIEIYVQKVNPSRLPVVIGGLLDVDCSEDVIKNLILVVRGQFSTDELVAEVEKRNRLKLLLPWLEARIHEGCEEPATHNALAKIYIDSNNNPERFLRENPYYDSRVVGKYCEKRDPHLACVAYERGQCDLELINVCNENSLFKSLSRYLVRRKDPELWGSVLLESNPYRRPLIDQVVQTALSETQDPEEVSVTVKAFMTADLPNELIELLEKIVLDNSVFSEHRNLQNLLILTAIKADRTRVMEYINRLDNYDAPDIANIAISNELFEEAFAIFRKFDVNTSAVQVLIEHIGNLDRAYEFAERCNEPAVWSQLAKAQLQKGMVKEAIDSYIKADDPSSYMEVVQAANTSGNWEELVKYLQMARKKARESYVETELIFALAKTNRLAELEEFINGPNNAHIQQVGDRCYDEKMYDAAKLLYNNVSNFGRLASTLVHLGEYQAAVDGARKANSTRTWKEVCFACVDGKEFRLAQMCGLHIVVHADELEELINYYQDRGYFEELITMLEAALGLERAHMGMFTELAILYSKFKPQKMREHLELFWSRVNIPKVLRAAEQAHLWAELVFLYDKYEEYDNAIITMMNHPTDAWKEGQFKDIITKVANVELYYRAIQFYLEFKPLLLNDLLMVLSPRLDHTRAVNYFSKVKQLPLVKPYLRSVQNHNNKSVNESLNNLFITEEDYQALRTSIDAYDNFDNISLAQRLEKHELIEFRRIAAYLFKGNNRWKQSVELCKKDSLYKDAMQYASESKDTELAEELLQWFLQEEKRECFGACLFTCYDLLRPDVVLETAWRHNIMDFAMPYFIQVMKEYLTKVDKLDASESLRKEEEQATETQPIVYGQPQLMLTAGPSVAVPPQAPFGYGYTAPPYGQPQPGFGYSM

more profilin 1 co-precipitated with clathrin from AMS-36-treated than from DMSO-treated cells: 44%
Substance: profilin 1 (from UniProt P07737 1-140) (natural protein)
